Assay [1] deals with T1, TrkB-Fc fusion (R&D Systems) (UniProt Q16620 32-430).
T1 construct: the ELISA paragraph says only TrkB-Fc fusion (R&D Systems); also called Human Fc-tagged TrkB; not shown: Fc part of the bought fusion
Briefly: TrkB ELISA, plate coated with TrkB-Fc, detection with anti-BDNF antibody. The procedure: The binding properties of BDNF-containing fusion proteins were determined with a TrkB ELISA. Maxisorb plates were coated with 1 μg/mL of a TrkB-Fc fusion (R&D Systems) in PBS overnight at 4° C. After blocking the plate with PBSTC (PBS with 0.05% Tween-20 and 2% Chicken serum (Gibco)) for 1 h at RT and three washes with PBST, BDNF-containing fusion proteins or BDNF alone were added to the wells at concentrations of 15 to 500 ng/mL in PBSTC and incubated for 2 h at RT. After six washes, the wells were incubated with mouse-anti-BDNF antibody (clone 4F11.1A1, 1 μg/mL in PBSTC) and, after further washes, with anti-mouse-HRP antibody (1:10000 in PBSTC), both for 1 h at RT. After three washes with PBST, HRP activity was detected using ABTS substrate and photometric quantification at a wavelength of 492 nm.
(In general: An ELISA detects its analyte on a solid surface through an enzyme-linked reagent.)

Assay [2] has as its target T2, human TrkB on CHO cells (CHO-K1-hTrkB/pSRE-Luc) (human, UniProt Q16620 32-822). Briefly: cell-based or functional assay.
Assay [3] concerns the target T2, human TrkB on CHO cells …. The experiment in a line: cell-based or functional assay. This is another data set of the same source.

As a reminder, the EC50 is the concentration at which the effect is half-maximal. High values mean weaker potency, low ones greater potency.

T1 sequence (Q16620 32-430 limits assumed): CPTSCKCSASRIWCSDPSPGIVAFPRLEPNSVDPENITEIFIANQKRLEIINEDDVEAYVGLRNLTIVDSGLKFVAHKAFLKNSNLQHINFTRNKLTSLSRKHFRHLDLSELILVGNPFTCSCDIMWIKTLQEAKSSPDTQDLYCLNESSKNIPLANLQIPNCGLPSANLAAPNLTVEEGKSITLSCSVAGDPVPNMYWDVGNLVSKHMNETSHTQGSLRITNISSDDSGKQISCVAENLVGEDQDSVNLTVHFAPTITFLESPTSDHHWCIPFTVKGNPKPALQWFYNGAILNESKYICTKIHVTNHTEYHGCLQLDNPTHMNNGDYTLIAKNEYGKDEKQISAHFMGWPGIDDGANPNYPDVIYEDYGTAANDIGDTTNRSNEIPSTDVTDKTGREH
T2 sequence (Q16620 32-822): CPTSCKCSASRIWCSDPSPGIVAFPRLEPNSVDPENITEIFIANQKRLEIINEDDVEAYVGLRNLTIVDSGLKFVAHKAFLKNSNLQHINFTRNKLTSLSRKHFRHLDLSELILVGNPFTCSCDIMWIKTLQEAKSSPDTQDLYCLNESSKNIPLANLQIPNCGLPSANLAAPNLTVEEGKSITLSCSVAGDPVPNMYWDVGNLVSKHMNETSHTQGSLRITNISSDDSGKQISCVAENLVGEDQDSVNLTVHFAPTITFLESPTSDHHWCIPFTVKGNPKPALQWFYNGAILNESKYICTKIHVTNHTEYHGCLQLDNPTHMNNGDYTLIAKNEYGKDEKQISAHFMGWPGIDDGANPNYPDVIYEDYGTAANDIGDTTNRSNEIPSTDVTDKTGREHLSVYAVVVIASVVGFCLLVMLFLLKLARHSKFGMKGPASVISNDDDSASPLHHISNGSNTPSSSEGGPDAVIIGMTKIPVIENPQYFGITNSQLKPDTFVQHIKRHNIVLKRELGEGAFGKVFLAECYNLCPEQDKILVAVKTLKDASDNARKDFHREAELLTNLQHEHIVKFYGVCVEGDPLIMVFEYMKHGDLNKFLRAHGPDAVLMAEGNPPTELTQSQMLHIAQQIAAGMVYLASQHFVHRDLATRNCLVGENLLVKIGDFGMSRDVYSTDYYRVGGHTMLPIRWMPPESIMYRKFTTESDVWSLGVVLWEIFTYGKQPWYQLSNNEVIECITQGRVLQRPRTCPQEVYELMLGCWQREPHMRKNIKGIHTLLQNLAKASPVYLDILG

B1: pre-pro-BDNF(-RGD)_(G4S)6GG_VH<IGF-1R>-CH1-His6 with anti-IGF-1R antibody light chain (other)
heavy: HSDPARRGELSVCDSISEWVTAADKKTAVDMSGGTVTVLEKVPVSKGQLKQYFYETKCNPMGYTKEGCRGIDKRHWNSQCRTTQSYVRALTMDSKKRIGWRFIRIDTSCVCTLTIKGGGGSGGGGSGGGGSGGGGSGGGGSGGGGSGGQVELVESGGGVVQPGRSQRLSCAASGFTFSSYGMHWVRQAPGKGLEWVAIIWFDGSSTYYADSVRGRFTISRDNSKNTLYLQMNSLRAEDTAVYFCARELGRRYFDLWGRGTLVSVSSASTKGPSVFPLAPSSKSTSGGTAALGCLVKDYFPEPVTVSWNSGALTSGVHTFPAVLQSSGLYSLSSVVTVPSSSLGTQTYICNVNHKPSNTKVDKKVGSGHHHHHH
light: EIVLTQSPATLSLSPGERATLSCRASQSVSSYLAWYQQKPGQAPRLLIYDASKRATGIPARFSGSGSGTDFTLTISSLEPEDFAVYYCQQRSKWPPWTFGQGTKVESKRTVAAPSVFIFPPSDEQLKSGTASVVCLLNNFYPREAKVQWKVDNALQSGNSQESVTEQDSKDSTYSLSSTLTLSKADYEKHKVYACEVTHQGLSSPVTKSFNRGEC
notes: BDNF part of the entry is the pre-pro precursor
Turning to B1, a half-maximal effect in assay [1] (EC50) was put at 18.5 nM.

B2: pre-pro-BDNF(-RGD)_(G4S)4GG_VH<IGF-1R>-CH1-His6 with anti-IGF-1R antibody light chain (other)
heavy: HSDPARRGELSVCDSISEWVTAADKKTAVDMSGGTVTVLEKVPVSKGQLKQYFYETKCNPMGYTKEGCRGIDKRHWNSQCRTTQSYVRALTMDSKKRIGWRFIRIDTSCVCTLTIKGGGGSGGGGSGGGGSGGGGSGGQVELVESGGGVVQPGRSQRLSCAASGFTFSSYGMHWVRQAPGKGLEWVAIIWFDGSSTYYADSVRGRFTISRDNSKNTLYLQMNSLRAEDTAVYFCARELGRRYFDLWGRGTLVSVSSASTKGPSVFPLAPSSKSTSGGTAALGCLVKDYFPEPVTVSWNSGALTSGVHTFPAVLQSSGLYSLSSVVTVPSSSLGTQTYICNVNHKPSNTKVDKKVGSGHHHHHH
light: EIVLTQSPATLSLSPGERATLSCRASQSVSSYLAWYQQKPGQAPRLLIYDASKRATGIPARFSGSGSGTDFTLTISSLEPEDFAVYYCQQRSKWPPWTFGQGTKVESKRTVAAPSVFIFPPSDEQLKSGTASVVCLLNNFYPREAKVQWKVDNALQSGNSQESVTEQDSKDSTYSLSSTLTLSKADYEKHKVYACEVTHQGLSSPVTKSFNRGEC
notes: as for B1
B2 displayed an EC50 in assay [1] of 13.5 nM.

B3: wild-type BDNF (E. coli) (ligand)
chain: HSDPARRGELSVCDSISEWVTAADKKTAVDMSGGTVTVLEKVPVSKGQLKQYFYETKCNPMGYTKEGCRGIDKRHWNSQCRTTQSYVRALTMDSKKRIGWRFIRIDTSCVCTLTIKRGR
notes: No tag, no linker, RGR not deleted; also called wt-BDNF; non-glycosylated mature wild-type BDNF
B3: the “relative BDNF activity in TrkB luciferase assay, EC50 [%]” value in assay [2] was determined as 60%. This molecule showed an EC50 in assay [1] of 5.7 nM. The “BDNF activity in TrkBluciferase assay, EC50 [% or nM]” value in assay [3] is 0.44 nM.

B4: pre-pro-BDNF(-RGR)-T7-His6 (ligand)
chain: HSDPARRGELSVCDSISEWVTAADKKTAVDMSGGTVTVLEKVPVSKGQLKQYFYETKCNPMGYTKEGCRGIDKRHWNSQCRTTQSYVRALTMDSKKRIGWRFIRIDTSCVCTLTIKGSGMASMTGGQQMGHHHHHH
notes: Entry is the pre-pro precursor as expressed (HEK293); values normalized to maturated BDNF; also called pp-BDNF; parental construct
The molecule B4 came in with an EC50 in assay [1] of 8.9 nM.

B5: complex of pre-pro-BDNF(-RGD)_(G4S)2GG_VH<IGF-1R>-CH1-His6, anti-IGF-1R antibody light chain and not-fused pre-pro-BDNF(-RGR)-T7-His6 (other)
heavy: HSDPARRGELSVCDSISEWVTAADKKTAVDMSGGTVTVLEKVPVSKGQLKQYFYETKCNPMGYTKEGCRGIDKRHWNSQCRTTQSYVRALTMDSKKRIGWRFIRIDTSCVCTLTIKGGGGSGGGGSGGQVELVESGGGVVQPGRSQRLSCAASGFTFSSYGMHWVRQAPGKGLEWVAIIWFDGSSTYYADSVRGRFTISRDNSKNTLYLQMNSLRAEDTAVYFCARELGRRYFDLWGRGTLVSVSSASTKGPSVFPLAPSSKSTSGGTAALGCLVKDYFPEPVTVSWNSGALTSGVHTFPAVLQSSGLYSLSSVVTVPSSSLGTQTYICNVNHKPSNTKVDKKVGSGHHHHHH
light: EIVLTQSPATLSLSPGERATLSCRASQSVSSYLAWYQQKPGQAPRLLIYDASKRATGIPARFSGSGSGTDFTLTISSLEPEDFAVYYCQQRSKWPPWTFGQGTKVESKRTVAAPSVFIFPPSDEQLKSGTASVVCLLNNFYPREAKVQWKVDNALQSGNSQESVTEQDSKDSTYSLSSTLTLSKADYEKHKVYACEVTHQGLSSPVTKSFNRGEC
chain: B4 chain
notes: BDNF-Fab fusion co-expressed with light chain and not-fused BDNF; BDNF entries are pre-pro precursors
Molecule B5 gave an EC50 in assay [1] of 6.1 nM.

B6: pre-pro-BDNF(-RGD)_(G4S)2GG_VH<IGF-1R>-CH1-His6 with anti-IGF-1R antibody light chain (other)
heavy: B5 heavy
light: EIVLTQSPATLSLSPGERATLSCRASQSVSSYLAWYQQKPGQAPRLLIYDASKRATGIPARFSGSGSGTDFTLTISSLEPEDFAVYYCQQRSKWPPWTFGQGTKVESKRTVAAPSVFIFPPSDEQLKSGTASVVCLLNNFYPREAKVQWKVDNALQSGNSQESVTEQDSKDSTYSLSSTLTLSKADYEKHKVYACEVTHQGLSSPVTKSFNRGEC
notes: as for B1
On to B6, for which the concentration giving a half-maximal response (EC50) in assay [1] worked out at 17 nM.
